Here are results for 4 molecules from patent US20240390512A1, “METHODS OF TREATING CHEMOTHERAPY-RESISTANT CANCER WITH AN ANTIBODY-DRUG CONJUGATE” (DAIICHI SANKYO COMPANY, LIMITED, priority 2021, published 2024).

The chains are these.
B1: rG056: rat anti-human CDH6 monoclonal antibody produced by hybridoma rG056; variable regions SEQ ID NO: 30 and 35 (antibody, listed as Rattus norvegicus, V domains shown)
VL: DVQMTQSPSSLAASPGESVSISCRATKSIGIYLAWYQQKPGKTFKLLIYSGSTLQSGTPSRFSGSGSGTDFTLTIRSLEPEDFGLYFCQQFYENPFTFGSGTKLEIRRA
VH: EVQLQESGPGLVKPSQSLSLTCSVTDYSITTYFWGWIRKFPGNKMEWMGYMSYRGGTSYNPSLKSRISITRDTSKNQFFLQLNSVTTEDTATYYCARCPNYGGHSLVFDYWGQGVMVTVSS
B2: rG055: rat anti-human CDH6 monoclonal antibody produced by hybridoma rG055; variable regions SEQ ID NO: 20 and 25 (antibody, listed as Rattus norvegicus, V domains shown)
VL: DVQMTHSPSYLAASPGESVSISCKTSKNISNYLVWYQQKPGEAYKLLIYSGSTLQSGTPSRFSGSGSGTDFTLTIRSLEPEDFGLYFCQQYYEKPFTFGSGTKLEIKRA
VH: EVQLQESGPGLVRPSQSLSLSCSVTDYSITSNYWGWIRRFPGNKMEWMGYITYSGYTSYNPSLQSRISITRDTSKNQFFLQLNSVTAEDTATYYCARSINHGGYSYVVDAWGPGASVTVSS
B3: rG061: rat anti-human CDH6 monoclonal antibody produced by hybridoma rG061; variable regions SEQ ID NO: 40 and 45 (antibody, listed as Rattus norvegicus, V domains shown)
VL: B2 VL with H6Q, T25A, S26T, N28S, V34A, L46V, F87S, F96L
VH: EVQLQESGPGLVKPSQSLSLTCSVTGYSITTYYWGWIRKFPGNKMEWMGYISYSGRTSYNPSLKSRMSITRDASKNQFFLQLNSVTTDDTATYYCARSPINHGGYWYFDFWGPGTMVTVSS
B4: rG019: rat anti-human CDH6 monoclonal antibody produced by hybridoma rG019; variable regions SEQ ID NO: 10 and 15 (antibody, listed as Rattus norvegicus, V domains shown)
VL: DIQMTQSPSLLSASVGDRVTLNCKASQNIYKNLAWYQQKLGEGPKLLIYDANTLQTGIPSRFSGSGSGSDFTLTISSLQPEDVATYFCQQYYSGWAFGGVTNLELKRA
VH: QVQLQQSGAELVKPGSSVKISCKASGYTFTRNFMHWIKQQPGNGLEWIGWIYCGDGETEYNQKFNGKATLTADRSSSTAYMELSRLTSEDSAVYFCARGVYGGFAGGYFDFWGQGVMVTVSS

Residue numbers refer to the chain shown, from its start.

In the first assay the target is T1, human CDH6 (full-length and EC domain deletion mutants) (Homo sapiens, UniProt P55285).
T1 construct: each one of the five EC domains could be deleted from full-length human CDH6; 3xFLAG (deletion mutants only, from the vector p3×FLAG-CMV-9); expressed in transfected cells; host or cells: 293α cells
T1 sequence (P55285 160-790): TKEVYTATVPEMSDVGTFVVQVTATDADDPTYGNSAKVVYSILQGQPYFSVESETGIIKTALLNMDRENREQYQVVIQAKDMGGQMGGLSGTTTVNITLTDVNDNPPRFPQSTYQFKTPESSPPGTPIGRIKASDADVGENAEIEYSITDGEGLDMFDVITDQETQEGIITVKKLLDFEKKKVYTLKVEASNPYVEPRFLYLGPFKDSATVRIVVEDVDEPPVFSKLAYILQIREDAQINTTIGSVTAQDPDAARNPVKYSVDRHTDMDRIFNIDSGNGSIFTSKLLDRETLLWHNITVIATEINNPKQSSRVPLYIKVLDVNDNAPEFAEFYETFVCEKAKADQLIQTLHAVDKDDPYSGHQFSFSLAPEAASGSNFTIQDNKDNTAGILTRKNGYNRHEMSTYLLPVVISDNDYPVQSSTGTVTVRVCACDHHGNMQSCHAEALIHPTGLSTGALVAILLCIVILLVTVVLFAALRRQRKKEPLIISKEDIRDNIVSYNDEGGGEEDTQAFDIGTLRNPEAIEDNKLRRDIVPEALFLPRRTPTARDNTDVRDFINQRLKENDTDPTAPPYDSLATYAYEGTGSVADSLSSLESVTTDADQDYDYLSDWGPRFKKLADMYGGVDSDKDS
Nature of the assay: Epitope analysis of rat anti-CDH6 antibody by flow cytometry using domain deletion mutants. Type of assay: binding. The conditions noted are these: flow cytometry; transfected 293α cells; antibody 20 nM. An excerpt:
(§1) The full-length extracellular region of human CDH6 has five extracellular domains, EC1 (SEQ ID NO: 2), EC2 (SEQ ID NO: 3), EC3 (SEQ ID NO: 4), EC4 (SEQ ID NO: 5), and EC5 (SEQ ID NO: 6). A gene to be expressed such that each one of the five EC domains could be deleted from full-length human CDH6 was synthesized by GeneArt, and incorporated into p3×FLAG-CMV-9 vectors for mammalian expression (Sigma-Aldrich Co. LLC) according to a method known to a person skilled in the art in order to produce an expression vector for each domain deletion mutant lacking any one of EC1 to EC5.
(§2) The epitopes to which the rat anti-human CDH6 antibodies bound were identified by flow cytometry analysis using a 293α cell line transfected with each EC domain deletion vector. Using Lipofectamine 2000 (Thermo Fisher Scientific Inc.), each domain deletion mutant expression vector produced in Reference Example 2)-2-1, or pcDNA3.1-hCDH6 for the expression of full-length human CDH6 was transiently introduced into a 293α cell line, which was a cell line derived from HEK293 cells by stable transfection with integrin αv and integrin […] expression vectors. The cells were cultured overnight under conditions of 37° C. and 5% CO2, and thereafter, a cell suspension was prepared. The suspension of the transfected 293α cells was centrifuged, and a supernatant was then removed. Thereafter, the cells were suspended by the addition of each of the 4 rat anti-CDH6 monoclonal antibodies (clone Nos: rG019, rG055, rG056 and rG061), which had been prepared in Reference Example 1)-7, or rat IgG control (R&D Systems, Inc.) (final concentration: 20 nM). The cells were left standing at 4° C. for 1 hour. The cells were washed twice with PBS supplemented with 5% FBS, and then suspended by the addition of Anti-Rat IgG (whole molecule)-FITC antibody produced in rabbit (Sigma-Aldrich Co. LLC) that had been 50-fold diluted with PBS supplemented with 5% FBS. The cells were left standing at 4° C. for 1 hour. The cells were washed twice with PBS supplemented with 5% FBS, followed by detection using a flow cytometer (Canto II; BD Biosciences). The data was analyzed using FlowJo (Tree Star, Inc.). In the histograms of FIGS. 2-1 to 2-6, the abscissa depicts FITC fluorescence intensity indicating the amount of the antibody bound, and the ordinate depicts cell count. […] Fluorescence intensity is enhanced when the antibody binds to full-length hCDH6 or each EC domain deletion mutant on the surface of cells. The rat IgG control binds to none of the transfected cells.
For orientation: Flow cytometry measures light scatter and fluorescence of single cells or particles in a stream.
On to B1, for which the “binding to EC1 deletion mutant” value is reported as “bind”.

For B2, the “binding to EC1 deletion mutant” value is “bind”.

Take B3: the “binding to EC1 deletion mutant” value is recorded as “bind”.

As for B4, the “binding to EC1 deletion mutant” value is given as “bind”.

The target in a further assay is T2, human CDH6 (full-length and EC domain deletion mutants) (Homo sapiens, UniProt P55285, DEL269-383).
T2 construct: each one of the five EC domains could be deleted from full-length human CDH6; 3xFLAG (deletion mutants only, from the vector p3×FLAG-CMV-9); expressed in transfected cells; host or cells: 293α cells
T2 sequence (P55285 with tags, fused parts or gaps DEL269-383): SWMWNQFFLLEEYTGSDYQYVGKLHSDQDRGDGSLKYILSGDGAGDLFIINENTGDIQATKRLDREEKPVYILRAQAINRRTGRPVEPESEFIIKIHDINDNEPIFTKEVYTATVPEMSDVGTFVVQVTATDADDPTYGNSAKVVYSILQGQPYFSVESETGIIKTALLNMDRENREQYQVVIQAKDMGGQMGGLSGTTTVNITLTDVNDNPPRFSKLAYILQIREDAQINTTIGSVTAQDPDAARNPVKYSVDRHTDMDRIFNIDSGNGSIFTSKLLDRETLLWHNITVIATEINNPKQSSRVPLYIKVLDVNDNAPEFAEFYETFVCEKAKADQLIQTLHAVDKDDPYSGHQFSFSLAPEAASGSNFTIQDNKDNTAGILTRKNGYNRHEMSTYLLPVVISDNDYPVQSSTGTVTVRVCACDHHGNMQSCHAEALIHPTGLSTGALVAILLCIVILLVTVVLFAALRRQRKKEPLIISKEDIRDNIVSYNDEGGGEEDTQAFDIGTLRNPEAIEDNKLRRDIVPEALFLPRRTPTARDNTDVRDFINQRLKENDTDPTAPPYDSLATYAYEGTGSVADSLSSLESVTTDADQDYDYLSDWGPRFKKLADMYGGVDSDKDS
The description is as above. Type of assay: binding. As to conditions: flow cytometry; transfected 293α cells; antibody 20 nM.
Excerpt: as §1, §2
Regarding B1, the “binding to EC3 deletion mutant” value is on record as “do not bind”.

On to B2, for which the “binding to EC3 deletion mutant” value is reported as “do not bind”.

In the case of B3, the “binding to EC3 deletion mutant” value was “do not bind”.

Regarding B4, the “binding to EC3 deletion mutant” value was “do not bind”.
